In one data set the test system is CT-SBP2 (human). Description: EMSA. The following applies: EMSA: 20 fmol RNA in 20 uL, 1x PBS, glycerol, 250 ug yeast tRNA, 10 mM DTT, 5 ug soybean trypsin inhibitor, 37 C 30 min, 4% native PAGE; pH not stated.
Another data set has as its system CT-SBP2L (human). The data set is described as follows: EMSA. The following applies: EMSA: 20 fmol RNA in 20 uL, 1x PBS, glycerol, 250 ug yeast tRNA, 10 mM DTT, 5 ug soybean trypsin inhibitor, 37 C 30 min, 4% native PAGE; pH not stated. Background: In EMSA bound probe runs differently from free probe, usually more slowly.

As a reminder, the Kd is a measure of binding affinity in units of concentration. A low value points to higher affinity.

Consider SelT SECIS, for which the results for the Kd in the data set with CT-SBP2 (human) and with CT-SBP2L (human) were 4 nM and 102 nM, respectively.

Take DIO1 SECIS: the Kd in the data set with CT-SBP2 (human) is 2.7 nM; in the data set on CT-SBP2L (human), 19.9 nM.

In the case of SelS SECIS, the Kd in the data set with CT-SBP2 (human) stood at 25.9 nM; with CT-SBP2L (human), 93 nM.

In the case of SelP SECIS 2, the Kd in the data set with CT-SBP2 (human) came out at 1.6 nM; with CT-SBP2L (human), 27.6 nM.

For the substance SelO SECIS, the figures for the dissociation constant Kd in the data set with CT-SBP2 (human) and in the data set with CT-SBP2L (human) were 7 nM and 58.7 nM, respectively.

For the substance TR3 SECIS, the figures for the Kd with CT-SBP2 (human) and in the data set on CT-SBP2L (human) were 4.2 nM and 115 nM, respectively.

Consider GPX4 SECIS, for which the Kd came out at 13.2 nM in the data set with CT-SBP2 (human) and 58.2 nM with CT-SBP2L (human).

For the substance DIO3 SECIS, the Kd with CT-SBP2 (human) turned out to be 5.4 nM; in the data set with CT-SBP2L (human), 55.7 nM.

In the case of SelM SECIS, the values for the Kd with CT-SBP2 (human) and in the data set with CT-SBP2L (human) were 3 nM and 23.4 nM, respectively.

Consider GPX2 SECIS, for which the Kd is 10.9 nM with CT-SBP2 (human) and 135 nM in the data set with CT-SBP2L (human).

Regarding SelW SECIS, the figures for the dissociation constant (Kd) in the data set with CT-SBP2 (human) and in the data set with CT-SBP2L (human) were 4 nM and 87.7 nM, respectively.

Turning to TR2 SECIS, the equilibrium dissociation constant (Kd) in the data set with CT-SBP2 (human) came to 11.6 nM; with CT-SBP2L (human), 54.4 nM.

As to SelN SECIS, the figures for the Kd in the data set with CT-SBP2 (human) and in the data set on CT-SBP2L (human) were 10.5 nM and 89 nM, respectively.

In the case of SelV SECIS, the dissociation constant (Kd) turned out to be 6.7 nM with CT-SBP2 (human) and 12.4 nM with CT-SBP2L (human).

For the substance SelK SECIS, the Kd with CT-SBP2 (human) is 3.6 nM; in the data set with CT-SBP2L (human) it was 32.9 nM.

In the case of SelP SECIS 1, the Kd was 3.4 nM in the data set with CT-SBP2 (human) and 59.2 nM with CT-SBP2L (human).

Take SelH SECIS: the Kd with CT-SBP2 (human) is 4.7 nM; with CT-SBP2L (human), 102 nM.

As for DIO2 SECIS, the Kd in the data set on CT-SBP2 (human) is 6.8 nM; with CT-SBP2L (human), 71.3 nM.

With GPX6 SECIS, the Kd in the data set on CT-SBP2 (human) worked out at 150 nM; with CT-SBP2L (human), 313 nM.

Turning to GPX1 SECIS, the values for the Kd with CT-SBP2 (human) and with CT-SBP2L (human) were 6.3 nM and 112 nM, respectively.

Take SPS2 SECIS: the Kd is 7.5 nM with CT-SBP2 (human) and 129 nM with CT-SBP2L (human).

For the substance SelR SECIS, the Kd with CT-SBP2 (human) worked out at 9.7 nM; in the data set with CT-SBP2L (human), 196 nM.

For GPX3 SECIS, the results for the Kd in the data set with CT-SBP2 (human) and with CT-SBP2L (human) were 25 nM and 135 nM, respectively.

In the case of SelI SECIS, the dissociation constant Kd with CT-SBP2 (human) was 12.2 nM; in the data set with CT-SBP2L (human), 59.2 nM.

In the case of SEP15 SECIS, the dissociation constant (Kd) in the data set on CT-SBP2 (human) amounted to 5 nM; in the data set with CT-SBP2L (human) it was 52.9 nM.

Consider TR1 SECIS, for which the results for the Kd in the data set on CT-SBP2 (human) and in the data set on CT-SBP2L (human) were 5.8 nM and 20.6 nM, respectively.

Values taken from paper PMC3328465.
